Reference: US20040146507A1 (Genentech, published 2004)

How the values were obtained:
rhesus CD11a [1] = molecular target: T1, rhesus CD11a (rhesus, UniProt H9Z8N3 26-1169); assay: rhesus PBL binding
T1 construct: whole, on cells; On rhesus peripheral blood lymphocytes or leukocytes; also called rhCD11a
T1 sequence: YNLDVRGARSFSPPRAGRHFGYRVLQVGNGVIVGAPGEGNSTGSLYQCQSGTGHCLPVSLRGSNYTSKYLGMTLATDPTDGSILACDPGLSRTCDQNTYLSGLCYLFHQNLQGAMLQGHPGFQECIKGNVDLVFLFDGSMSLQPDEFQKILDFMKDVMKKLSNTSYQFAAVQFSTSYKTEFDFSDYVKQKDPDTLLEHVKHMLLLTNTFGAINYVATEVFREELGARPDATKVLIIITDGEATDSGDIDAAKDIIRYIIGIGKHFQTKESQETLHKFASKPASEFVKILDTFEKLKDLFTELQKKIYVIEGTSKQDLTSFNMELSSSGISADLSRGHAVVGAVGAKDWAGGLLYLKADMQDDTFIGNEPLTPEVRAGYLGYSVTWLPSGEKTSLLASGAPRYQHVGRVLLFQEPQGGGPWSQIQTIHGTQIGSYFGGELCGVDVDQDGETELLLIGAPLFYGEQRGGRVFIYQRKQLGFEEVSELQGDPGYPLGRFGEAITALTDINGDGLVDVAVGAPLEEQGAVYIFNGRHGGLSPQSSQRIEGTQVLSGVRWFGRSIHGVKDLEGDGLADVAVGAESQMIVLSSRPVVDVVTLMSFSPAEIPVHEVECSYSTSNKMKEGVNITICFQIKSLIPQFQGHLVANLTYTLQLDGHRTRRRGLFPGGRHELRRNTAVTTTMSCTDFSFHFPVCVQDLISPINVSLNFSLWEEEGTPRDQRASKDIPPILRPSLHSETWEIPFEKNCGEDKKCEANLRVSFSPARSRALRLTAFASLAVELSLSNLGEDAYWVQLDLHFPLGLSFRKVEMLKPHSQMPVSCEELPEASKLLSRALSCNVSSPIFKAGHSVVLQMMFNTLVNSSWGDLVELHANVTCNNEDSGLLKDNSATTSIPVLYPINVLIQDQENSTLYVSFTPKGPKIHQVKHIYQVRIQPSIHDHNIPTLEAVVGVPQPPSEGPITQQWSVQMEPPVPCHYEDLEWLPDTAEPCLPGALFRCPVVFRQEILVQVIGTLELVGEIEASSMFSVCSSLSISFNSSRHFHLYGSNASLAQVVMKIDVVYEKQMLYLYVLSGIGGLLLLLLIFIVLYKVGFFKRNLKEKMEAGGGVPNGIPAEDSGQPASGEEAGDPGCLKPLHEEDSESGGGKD

human CD11a [2] = molecular target: T2, human CD11a (human, UniProt P20701 26-1170); assay: FACScan, Jurkat cells
T2 construct: whole, on cells; On Jurkat T-cells or human peripheral blood mononuclear cells, as part of LFA-1; also called CD11a on Jurkat cells; alpha subunit of LFA-1
Procedure: (§1) Aliquots of 10⁶ Jurkat T-cells were incubated with serial dilutions of humanized and control antibodies in PBS-0.1% BSA-10 mM sodium azide for 45 min at 4° C. The cells were washed and then incubated in fluorescein-conjugated goat anti-human F(ab′)₂ (Organon Teknika, Westchester, Pa.) for 45 min at 4° C. Cells were washed and analysed on a FACScan (Becton Dickinson, Mountain View, Calif.). 8×10³ cells were acquired by list mode and gated by forward light scatter versus side light scatter, thereby excluding dead cells and debris.
Target sequence in this assay (P20701 26-1170): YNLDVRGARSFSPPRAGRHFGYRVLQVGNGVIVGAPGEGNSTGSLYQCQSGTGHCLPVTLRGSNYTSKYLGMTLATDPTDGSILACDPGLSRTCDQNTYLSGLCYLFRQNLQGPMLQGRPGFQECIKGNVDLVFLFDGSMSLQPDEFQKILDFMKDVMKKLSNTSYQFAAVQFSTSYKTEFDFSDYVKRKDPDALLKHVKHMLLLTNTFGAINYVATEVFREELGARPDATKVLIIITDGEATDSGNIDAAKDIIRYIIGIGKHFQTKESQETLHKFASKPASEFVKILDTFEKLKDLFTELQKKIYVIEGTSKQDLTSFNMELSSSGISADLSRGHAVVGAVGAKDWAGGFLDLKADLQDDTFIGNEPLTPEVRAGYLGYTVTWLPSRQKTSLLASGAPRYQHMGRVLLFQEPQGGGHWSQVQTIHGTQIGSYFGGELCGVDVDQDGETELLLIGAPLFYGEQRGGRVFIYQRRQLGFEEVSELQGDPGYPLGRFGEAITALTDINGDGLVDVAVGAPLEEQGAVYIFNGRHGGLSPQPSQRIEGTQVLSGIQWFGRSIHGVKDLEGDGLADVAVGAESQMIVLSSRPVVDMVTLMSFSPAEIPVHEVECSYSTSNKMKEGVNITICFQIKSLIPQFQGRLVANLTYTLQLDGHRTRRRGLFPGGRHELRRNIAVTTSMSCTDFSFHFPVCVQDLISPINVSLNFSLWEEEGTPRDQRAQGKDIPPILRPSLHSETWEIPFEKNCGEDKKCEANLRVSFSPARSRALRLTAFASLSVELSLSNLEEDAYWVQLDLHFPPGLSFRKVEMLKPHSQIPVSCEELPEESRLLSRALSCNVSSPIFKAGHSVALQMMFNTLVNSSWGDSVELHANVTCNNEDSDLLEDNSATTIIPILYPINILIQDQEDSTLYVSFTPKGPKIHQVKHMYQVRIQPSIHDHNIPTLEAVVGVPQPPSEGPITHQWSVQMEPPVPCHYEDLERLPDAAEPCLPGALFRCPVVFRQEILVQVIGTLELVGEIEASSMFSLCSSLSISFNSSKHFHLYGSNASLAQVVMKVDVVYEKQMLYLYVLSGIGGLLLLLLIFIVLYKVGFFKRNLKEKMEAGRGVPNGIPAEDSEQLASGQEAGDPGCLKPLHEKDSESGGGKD

human CD11a [3] = molecular target: T2, human CD11a; assay: FACScan, Jurkat cells; remark: listed apart in the source
Procedure, shortened: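 Flow-cytometric binding to 10⁶ Jurkat T-cells with serially diluted humanized antibodies (including CDR alanine-scan mutants of HuIgG1), 45 min at 4 °C in PBS-0.1% BSA-10 mM sodium azide. Detected with fluorescein anti-human F(ab′)₂, 45 min at 4 °C; 8×10³ scatter-gated live cells acquired.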

human CD11a [4] = molecular target: T2, human CD11a; assay: FACScan, Jurkat cells; remark: listed apart in the source
Procedure: as §1
To determine which CDR residues were involved in binding to human CD11a an alanine-scan (Cunningham et al., Science 244:1081 (1989)) was performed on the CDR residues of HuIgG1. Each mutant was tested for binding to CD11a on Jurkat cells. In the light chain only CDR-L3 contributes to binding.

human CD11a [5] = molecular target: T2, human CD11a; assay: cell-based or functional assay
human CD11a [6] = molecular target: T2, human CD11a; assay: cell-based or functional assay; remark: listed apart in the source
human CD11a [7] = molecular target: T2, human CD11a; assay: not stated (summary of the Example)
rhesus CD11a [8] = molecular target: T1, rhesus CD11a; assay: binding to rhesus CD11a compared with human CD11a
rhesus CD11a [9] = molecular target: T1, rhesus CD11a; assay: binding to rhesus peripheral blood lymphocytes
human CD11a [10] = molecular target: T2, human CD11a; assay: saturation binding, human lymphocytes, donor 1; Kd(app)
Procedure: (§2) Radiolabeled antibodies were prepared using Iodo-Gen (Pierce, Rockford, Ill.) according to the manufacturer's instructions. 50 μg of antibody and 1 mCi¹²⁵I (DuPont, Wilmington, Del.) were added to each tube and incubated for 15 min at 25° C. Radiolabeled proteins were purified from the remaining free ¹²⁵I using PD-10 columns (Pharmacia, Uppsala, Sweden) equilibrated in Hank's Balanced Salt Solution (HBSS, Life Technologies, Grand Island, N.Y.) containing 0.2% gelatin.
(§3) Antibody affinities were determined by saturation binding using either peripheral blood mononuclear cells (murine MHM24 and HuIgG1) or rhesus leukocytes (MHM23, RhIgG1). In each assay, a radiolabeled antibody was serially diluted in HBSS-0.2% gelatin in quadruplicate. Nonspecific binding was determined by the addition of 500 nM final concentration of homologous unlabeled antibody in duplicate through the serial dilution. Human lymphocytes or rhesus leukocytes were added to the plates in a volume of 170 μl per well. Plates were incubated for 2 hr at room temperature on an orbital plate shaker. After incubation, cells were harvested using a SKATRON™ cell harvester (Lier, Norway) and washed 10 times with PBS containing 0.25% gelatin and 0.1% sodium azide. Samples were then counted for 1 min in an LBK Wallac GammaMaster gamma counter (Gaithersburg, Md.). […]

human CD11a [11] = molecular target: T2, human CD11a; assay: saturation binding, human lymphocytes, donor 2; Kd(app)
Procedure: as §2, §3

human CD11a [12] = molecular target: T2, human CD11a; assay: saturation binding, 125I-antibody, human lymphocytes; Kd(app)
Procedure: as §2, §3

- Var.EC50/HuIgG1 EC50 (rhesus CD11a [1]): 1 ratio
- EC50 F(ab)/EC50 F(ab)-2 (human CD11a [2]): 0.004 ratio
- EC50 (human CD11a [3]): 42 pM
- Var.EC50/HuIgG1 EC50 (human CD11a [4]): 1 ratio
- IC50, blocking of cell adhesion, Jurkat: HuK (human CD11a [5]): 130 pM
- IC50, human mixed lymphocyte response (human CD11a [6]): 380 pM
- Kd (human CD11a [7]): 200 pM
- fold reduction in binding against human CD11a (rhesus CD11a [8]): ~1000 fold
- EC50 (rhesus CD11a [9]): 45600 pM
- Kd (human CD11a [10]): 110 pM
- Kd (human CD11a [11]): 180 pM
- Kd (human CD11a [12]): 150 pM
B1: humanized MHM24 IgG1 (antibody, V domains shown)
VH: EVQLVESGGGLVQPGGSLRLSCAASGYSFTGHWMNWVRQAPGKGLEWVGMIHPSDSETRYNQKFKDRFTISVDKSKNTLYLQMNSLRAEDTAVYYCARGIYFYGTTYFDYWGQGTLVTVSS
VL: DIQMTQSPSSLSASVGDRVTITCRASKTISKYLAWYQQKPGKAPKLLIYSGSTLQSGVPSRFSGSGSGTDFTLTISSLQPEDFATYYCQQHNEYPLTFGQGTKVEIKR
notes: F(ab)-8 VL and VH domains fused to human constant light and heavy (IgG1) chains; also called HuIgG1; huMHM24
